US20170056327A1 (The Methodist Hospital, priority 2015, published 2017)

Experiments:
[1] = target: MMP2 substrate peptide … (SEQ ID NO:1); assay: cell-based or functional assay
[2] = tested on: T1, MMP2 substrate peptide AGFSGPLGMWSAGSFG (SEQ ID NO:1)
T1 sequence: AGFSGPLGMWSAGSFG

[3] = tested on: BRAF, phosphor-BRAF, MEK, phosphor-MEK, ERK, phosphor-ERK in A375 melanoma cells; assay: Western blot of BRAF pathway proteins after treatment; assay type: cell-based, human; conditions: delivered by composite with single cargo; siRNA 100 nM, docetaxel 100 nM
Experimental: The size and zeta potential of the particles were measured by the Zetasizer Nano (Malvern Instruments). The SEM characterization was shown on an ultra-high resolution scanning electron microscope (SEM 230, NovaNano, Hillsboro, Oreg., USA). Western blots were performed using standard protocols on 4%-15% Bio-Rad Mini-Protean TGX Precast Gels (Bio-Rad, Hercules, Calif., USA).

Chain of matrix metalloproteinase-2 (MMP-2) enzyme (P08253 110-660): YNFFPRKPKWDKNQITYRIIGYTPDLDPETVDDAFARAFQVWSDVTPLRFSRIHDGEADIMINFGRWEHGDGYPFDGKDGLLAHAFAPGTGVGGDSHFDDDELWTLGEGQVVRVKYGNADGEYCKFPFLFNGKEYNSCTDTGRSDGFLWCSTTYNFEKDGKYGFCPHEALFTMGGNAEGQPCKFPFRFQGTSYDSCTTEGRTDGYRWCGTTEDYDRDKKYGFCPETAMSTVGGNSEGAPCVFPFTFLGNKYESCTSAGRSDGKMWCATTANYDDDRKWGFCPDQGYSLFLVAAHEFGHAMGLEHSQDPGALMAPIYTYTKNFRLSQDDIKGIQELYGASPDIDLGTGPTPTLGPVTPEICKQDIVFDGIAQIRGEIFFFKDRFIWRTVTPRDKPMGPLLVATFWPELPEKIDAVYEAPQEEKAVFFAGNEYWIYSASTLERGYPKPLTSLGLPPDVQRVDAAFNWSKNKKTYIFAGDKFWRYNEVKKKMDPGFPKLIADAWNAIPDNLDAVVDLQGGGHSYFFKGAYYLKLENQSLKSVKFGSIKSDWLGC

| Molecule | cellular uptake in A375 cells of stimuli-release particles (MSV/Peptide NPs) relative to non-stimuli-release particles (MSV/NPs), medium with 2 ug/mL MMP2, 6-hrs' incubation [1] [fold] | cellular uptake in A375 cells of stimuli-release particles (MSV/Peptide NPs) relative to non-stimuli-release particles (MSV/NPs), medium with 2 ug/mL MMP2, 24-hrs' incubation [1] [fold] | coumarin 6 released into buffer within 6 hrs from MSV/Peptide NPs with MMP2 enzyme (2 ug/mL); without MMP2 cleavage only about 40% was released [2] | effect on protein expression of BRAF pathway [3] |
| --- | --- | --- | --- | --- |
| matrix metalloproteinase-2 (MMP-2) enzyme | 1.2 | 1.5 | about 80% of the coumarin 6 was released |  |
| 5′-GCUACAGAGAAAUCUCGAU-3′ (listed as RNA, chemistry not given here) [BRAF siRNA] |  |  |  | knockdown BRAF expression and its related phosphor-proteins downstream |
| CC(=O)O[C@@]12CO[C@@H]1C[C@H](O)[C@@]1(C)C(=O)[C@H](O)C3=C(C)[C@@H](OC(=O)[C@H](O)[C@@H](NC(=O)OC(C)(C)C)c4ccccc4)C[C@@](O)([C@@H](OC(=O)c4ccccc4)[C@H]21)C3(C)C [docetaxel] |  |  |  | decreased the expression of BRAF, phosphor-BRAF and phosphor-MEK, but increased the expression of phosphor-ERK |
